First the molecules themselves.
B1: CPEB3 Ribozyme (parent)
chain: GGGGGCCACAGCAGAAGCGUUCACGUCGCGGCCCCUGUCAGAUUCUGGUGAAUCUGCGAAUUCUGCUGU

Variants of B1 are the subject of this data set. The experiment in a line: self-cleavage, relative activity (ratio to wild type); higher = more cleavage; co-transcriptional.
Regarding GGGGGCCACAGCAGAAGCGUUCACGUGGCGGCCCCUGUCAGAUUCUGGUGAAUCUGCGAACUCUGCUGU [C27G U61C], the self-cleavage was determined as 0.169.

As to GGGGGCCACAGCAGAAGCGUUCACGUGGCGGCCCCUGUCAGAUUCUGGUGAAUCUGCGAAGUCUGCUGU [C27G U61G], the self-cleavage amounted to 0.172.

In the case of GGGGGCCACAGCAGAAGCGUUCACGUGGCGGCCCCUGUCAGAUUCUAGUGAAUCUGCGAAUUCUGCUGU [C27G G47A], the self-cleavage amounted to 0.265.

For the variant GGGGGCCACAGCAGAAGCGUUCACGUGGCGGCCCCUGUCAGAUUCUUGUGAAUCUGCGAAUUCUGCUGU [C27G G47U], the self-cleavage came to 0.17.

For the variant GGGGGCCACAGCAGAAGCGUUCACGUGGCGGCCCCUGUCAGAUUCUGGUGAAUCUGCGAAUUCUGCUAU [C27G G68A], the self-cleavage was 0.228.

Consider GGGGGCCACAGCAGAAGCGUUCACGUGGCGGCCCCUGUCAGAUUCUGGUGAAUCCGCGAAUUCUGCUGU [C27G U55C], for which the self-cleavage was 0.137.

With GGGGGCCACAGCAGAAGCGUUCACGUGGCGGCCCCUGUCAGAUUCUGGUGAAUAUGCGAAUUCUGCUGU [C27G C54A], the self-cleavage was determined as 0.187.

Consider GGGGGCCACAGCAGAAGCGUUCACGUUGCGGCCCCUGUCCGAUUCUGGUGAAUCUGCGAAUUCUGCUGU [C27U A40C], for which the self-cleavage was 0.198.

Take GGGGGCCACAGCAGAAGCGUUCACGUGGCGGCCCCUGGCAGAUUCUGGUGAAUCUGCGAAUUCUGCUGU [C27G U38G]: the self-cleavage came out at 0.255.

GGGGGCCACAGCAGAAGCGUUCACGUGGCGGCCCCUGUCAGAUUCUGGUGAAUCUGCGAAUUCUGGUGU [C27G C66G]: the self-cleavage worked out at 0.119.

As for GGGGGCCACAGCAGAAGCGUUCACGUUGCGGCCCCUGUCAGUUUCUGGUGAAUCUGCGAAUUCUGCUGU [C27U A42U], the self-cleavage amounted to 0.167.

Take GGGGGCCACAGCAGAAGCGUUCACGUGGCGGCCCCUGUCAGAUUCUGUUGAAUCUGCGAAUUCUGCUGU [C27G G48U]: the self-cleavage turned out to be 0.163.

Consider GGGGGCCACAGCAGAAGCGUUCACGUGGCGGCCCCUGUCAGAUUCUGCUGAAUCUGCGAAUUCUGCUGU [C27G G48C], for which the self-cleavage was 0.241.

Regarding GGGGGCCACAGCAGAAGCGUUCACGUGGCGGCCCCUGUCAGAUUCUGGUGAAUCUACGAAUUCUGCUGU [C27G G56A], the self-cleavage came out at 0.178.

As to GGGGGCCACAGCAGAAGCGUUCACGUGGCGGCCCCUGUCAGAUUCUGGUGAAUCUUCGAAUUCUGCUGU [C27G G56U], the self-cleavage is 0.156.

On to GGGGGCCACAGCAGAAGCGUUCACGUGGCGGCCCCUGUCAGAUCCUGGUGAAUCUGCGAAUUCUGCUGU [C27G U44C], for which the self-cleavage was determined as 0.145.

Turning to GGGGGCCACAGCAGAAGCGUUCACGUGGCGGCCCCUGUCAGAUACUGGUGAAUCUGCGAAUUCUGCUGU [C27G U44A], the self-cleavage worked out at 0.212.

For the variant GGGGGCCACAGCAGAAGCGUUCACGUGGCGGCCCCUGUCAGAUUCUGGUGAAUCUGCGAAUUCCGCUGU [C27G U64C], the self-cleavage was 0.254.

GGGGGCCACAGCAGAAGCGUUCACGUGGCGGCCCCUGUCAGAUUCUGGUGAAUCUGCGAAUUCUUCUGU [C27G G65U]: the self-cleavage was 0.164.

Regarding GGGGGCCACAGCAGAAGCGUUCACGUGGCGGCCCCUGUCAGAUUCUGGUGAAUCUGCGAAUUCUCCUGU [C27G G65C], the self-cleavage was 0.234.

GGGGGCCACAGCAGAAGCGUUCACGUGGCGGCCCCUGUCAGAGUCUGGUGAAUCUGCGAAUUCUGCUGU [C27G U43G]: the self-cleavage stood at 0.154.

For GGGGGCCACAGCAGAAGCGUUCACGUGGCGGCCCCUGUCAGAAUCUGGUGAAUCUGCGAAUUCUGCUGU [C27G U43A], the self-cleavage was found to be 0.133.

Turning to GGGGGCCACAGCAGAAGCGUUCACGUGGCGGCCCCUGUCAGAUUCUGGUGAAUCUGCAAAUUCUGCUGU [C27G G58A], the self-cleavage turned out to be 0.16.

Take GGGGGCCACAGCAGAAGCGUUCACGUGACGGCCCCUGUCAGAUUCUGGUGAAUCUGCGAAUUCUGCUGU [C27G G28A]: the self-cleavage was 0.147.

As to GGGGGCCACAGCAGAAGCGUUCACGUGGCGGCCCCUGUGAGAUUCUGGUGAAUCUGCGAAUUCUGCUGU [C27G C39G], the self-cleavage was 0.263.

Take GGGGGCCACAGCAGAAGCGUUCACGUGGCGGCCCCUGUCAGAUUAUGGUGAAUCUGCGAAUUCUGCUGU [C27G C45A]: the self-cleavage is 0.17.

As for GGGGGCCACAGCAGAAGCGUUCACGUGGCGGCCCCUGUCAGAUUUUGGUGAAUCUGCGAAUUCUGCUGU [C27G C45U], the self-cleavage was determined as 0.229.

Consider GGGGGCCACAGCAGAAGCGUUCACGUGGCGGCCCCUGUCACAUUCUGGUGAAUCUGCGAAUUCUGCUGU [C27G G41C], for which the self-cleavage stood at 0.176.

In the case of GGGGGCCACAGCAGAAGCGUUCACGUUGCGGCCCCUGUCAGAUUCUGGUGAAUCUGCGCAUUCUGCUGU [C27U A59C], the self-cleavage was 0.127.

For the variant GGGGGCCACAGCAGAAGCGUUCACGUUGCGGCCCCUGUCAGAUUCUGGUGAAUCUGCGUAUUCUGCUGU [C27U A59U], the self-cleavage is 0.212.

Consider GGGGGCCACAGCAGAAGCGUUCACGUUGCGGCCCCUGUCAGAUUCUGGUGAAUCUGCGGAUUCUGCUGU [C27U A59G], for which the self-cleavage is 0.246.

Regarding GGGGGCCACAGCAGAAGCGUUCACGUGGCGUCCCCUGUCAGAUUCUGGUGAAUCUGCGAAUUCUGCUGU [C27G G31U], the self-cleavage is 0.2.

For GGGGGCCACAGCAGAAGCGUUCACGUGGCGGCCCCUUUCAGAUUCUGGUGAAUCUGCGAAUUCUGCUGU [C27G G37U], the self-cleavage worked out at 0.165.

On to GGGGGCCACAGCAGAAGCGUUCACGUGGCGGCCCCUAUCAGAUUCUGGUGAAUCUGCGAAUUCUGCUGU [C27G G37A], for which the self-cleavage is 0.135.

As to GGGGGCCACAGCAGAAGCGUUCACGUGGCGGCCCCUGUCAGAUUCUGGUGAAUCUGCGAAUUCUGCUGG [C27G U69G], the self-cleavage amounted to 0.29.

Regarding GGGGGCCACAGCAGAAGCGUUCACGUGGCGGCCCCUGUCAGAUUCUGGUGAAUCUGUGAAUUCUGCUGU [C27G C57U], the self-cleavage came out at 0.189.

As for GGGGGCCACAGCAGAAGCGUUCACGUGGCGGCCCCUGUCAGAUUCUGGUGAAUCUGCGAAUUAUGCUGU [C27G C63A], the self-cleavage came to 0.197.

Take GGGGGCCACAGCAGAAGCGUUCACGUGGCGGCCCCGGUCAGAUUCUGGUGAAUCUGCGAAUUCUGCUGU [C27G U36G]: the self-cleavage was 0.14.

Regarding GGGGGCCACAGCAGAAGCGUUCACGUGGCGGCCCCCGUCAGAUUCUGGUGAAUCUGCGAAUUCUGCUGU [C27G U36C], the self-cleavage came out at 0.168.

The values above are taken from the RNAGym collection of RNA variant scans (doi:10.7554/elife.80360).
